The values below come from patent US20230414703A1 (published 2023).

B1: mouse PD-1 receptor (receptor, UniProt Q02242 25-167, looked up)
chain: LEVPNGPWRSLTFYPAWLTVSEGANATFTCSLSNWSEDLMLNWNRLSPSNQTEKQAAFCNGLSQPVQDARFQIIQLPNRHDFHMNILDTRRNDSGIYLCGAISLHPKAKIEESPGAELVVTERILETSTRYPSPSPKPEGRFQ

T1 sequence (Q15116 25-167 limits assumed): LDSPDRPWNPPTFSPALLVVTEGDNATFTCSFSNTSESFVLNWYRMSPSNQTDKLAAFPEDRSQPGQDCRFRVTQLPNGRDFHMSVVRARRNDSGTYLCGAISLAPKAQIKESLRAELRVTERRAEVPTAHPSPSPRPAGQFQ

One test concerns the target T1, soluble recombinant human PD-1 receptor (human, UniProt Q15116 25-167, limits assumed).
T1 construct: also called human PD-1 receptors
Put plainly: clonal phage ELISA, peptide on phage, PD-1 coated well. The text has this: The TriCo-20™ (TRICO-20™) and TriCo-16™ (TRICO-16™) Phage Display Peptide Libraries (Creative Biolabs, 45-1 Ramsey Road, Shirley, NY 11967) were screened to identify binders of soluble recombinant human PD-1 receptor.
In general terms: An ELISA detects its analyte on a solid surface through an enzyme-linked reagent.
Turning to HHHQVYQVRSHWTGMHSGHD (Found by phage display) [peptide HD20], the “Clonal Phase ELISA coated signal” value amounted to 0.281.
The same measure, in the same setting: in the case of SSYHHFKMPELHFGKNTFHQ (Found by phage display) [peptide SQ20] it was 0.284; in that of QTRTVPMPKIHHPPWQNVVP (Found by phage display) [peptide QP20], 0.851.
Regarding WNLPASFHNHHIRPHEHEWIQ (also called WQ-21) [peptide WQ20], the “Clonal Phase ELISA coated signal” value was 0.275.

In the next test the target is Mouse PD-L1 (mouse, UniProt Q9EP73 19-239, limits assumed). The test is described as follows: BIACORE T-200 SPR, PD-1 immobilised on CM5, steady state.
Sequence of Mouse PD-L1 (Q9EP73 19-239 limits assumed): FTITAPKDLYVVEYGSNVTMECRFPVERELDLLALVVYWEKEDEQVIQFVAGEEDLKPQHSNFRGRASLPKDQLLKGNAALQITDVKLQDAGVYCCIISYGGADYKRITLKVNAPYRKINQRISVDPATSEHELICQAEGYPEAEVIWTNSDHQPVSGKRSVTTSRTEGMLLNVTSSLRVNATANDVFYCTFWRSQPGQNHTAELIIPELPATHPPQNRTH
For the molecule B1, the Ka was 2.75e+06 M⁻¹ and the Kd turned out to be 0.364 µM.

The target of a further test is human PD-1 on Jurkat cells (human, UniProt Q15116 25-288). Put plainly: cell-based or functional assay.
Sequence of human PD-1 on Jurkat cells (Q15116 25-288): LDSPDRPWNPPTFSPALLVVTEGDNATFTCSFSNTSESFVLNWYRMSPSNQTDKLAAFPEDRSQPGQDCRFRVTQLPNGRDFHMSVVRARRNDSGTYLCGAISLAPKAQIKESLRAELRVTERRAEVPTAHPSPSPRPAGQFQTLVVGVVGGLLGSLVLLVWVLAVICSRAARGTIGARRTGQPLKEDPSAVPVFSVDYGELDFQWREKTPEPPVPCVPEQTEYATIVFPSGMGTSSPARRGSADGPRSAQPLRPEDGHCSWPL
HHHQVYQVRSHWTGMHSGHD (Found by phage display) [peptide HD20]: the “peak-fold inhibition (luciferase reporter expression)” value is roughly 1.5 fold.
Same read-out and setting: in the case of SSYHHFKMPELHFGKNTFHQ (Found by phage display) [peptide SQ20] it was roughly 1.5 fold; in that of QTRTVPMPKIHHPPWQNVVP (Found by phage display) [peptide QP20], roughly 1.5 fold.
As to WNLPASFHNHHIRPHEHEWIQ (also called WQ-21) [peptide WQ20], the “peak-fold inhibition (luciferase reporter expression)” value was roughly 1.5 fold.

The next test concerns the target T1, soluble recombinant human PD-1 receptor. Put plainly: BIACORE T-200 SPR, PD-1 immobilised on CM5, steady state. As for the experimental part:
(§1) 12,000 response units (RU) of human and 6000 RU of mouse PD-1 receptors were directly immobilized on flow cell 2 and flow cell 4 of the CM5 chip by amine coupling method (EDC/NHS). The un-occupied sites were blocked with 1 M ethanol amine. […] Flow cell 1 was kept blank and used for reference subtraction. Binding of analyte to the ligand was monitored in real time.
(§2) Due to fast on rate and off rate, KD was determined by steady state equilibrium kinetics.
(§3) Chi square (χ2) analysis was carried out between the actual sensorgram and a sensorgram generated from the BIANALYSIS® software (black line) to determine the accuracy of the analysis. A χ2 value within 1-2 is considered significant (accurate) and below 1 is highly significant (highly accurate).
A general note: Surface plasmon resonance follows binding to a sensor surface in real time, without labels.
HHHQVYQVRSHWTGMHSGHD (Found by phage display) [peptide HD20]: the Ka was found to be 318000 M⁻¹ and the Kd turned out to be 3.41 µM.
For SSYHHFKMPELHFGKNTFHQ (Found by phage display) [peptide SQ20], in that order: 194000 M⁻¹ and 5.16 µM.
With QTRTVPMPKIHHPPWQNVVP (Found by phage display) [peptide QP20], the Ka came to 93600 M⁻¹ and the dissociation constant Kd was 10.7 µM.
For WNLPASFHNHHIRPHEHEWIQ (also called WQ-21) [peptide WQ20], the Ka turned out to be 3280 M⁻¹ and the Kd came to 305 µM.

Another test has as its target B1. The description is as above. The protocol:
as §1, §2, §3
The molecule HHHQVYQVRSHWTGMHSGHD (Found by phage display) [peptide HD20] displayed a Ka of 4250 M⁻¹ and a Kd of 235 µM.
On the same counts, the results for SSYHHFKMPELHFGKNTFHQ (Found by phage display) [peptide SQ20] are 21400 M⁻¹ and 46.8 µM.
For QTRTVPMPKIHHPPWQNVVP (Found by phage display) [peptide QP20], in that order: 18000 M⁻¹ and 55.4 µM.
Take WNLPASFHNHHIRPHEHEWIQ (also called WQ-21) [peptide WQ20]: the Ka was 1310 M⁻¹ and the Kd is 761 µM.

The term Kd denotes the constant that tells how readily two partners part at equilibrium.
